Key:
Assay in all cases: Biacore specificity assay: IgG immobilised (about 300 RU), antigen injected at 500 nM
mTRKB = target: T1, mTRKB (mouse, UniProt P15209 32-429, limits assumed)
T1 construct: Non-target panel protein
Experimental: (§1) Biacore specificity analyses were performed using the T-200 biosensor, series S CM5 chips, an amine-coupling kit, 10 mM sodium acetate immobilization buffer at pH 5.0, 10× HBS-P running buffer and NaOH for regeneration (GE Healthcare). A predefined ligand (IgG) immobilization program was set up to immobilize approximately 300 Response Units (RU) on the flow cell for each IgG to be tested. For Anti-RAGE and anti-A33, a panel of fully-purified recombinant target and non-target antigens were diluted in HBS-P running buffer to a final concentration of 500 nM. Four groups of antigens were examined, including: cell membrane proteins (mTRKB, hTRKB, mEGFR, hEGFR, hFceR1, hIL-21R, mICAM1, mICAM2, hICAM1, hCD33, hLAMP-1, hLOX-1, and), soluble signaling molecules (mTNFa, hVEGF, hCXCL13) and albumins (BSA, HSA and MSA). These proteins were injected at 50 μl/min for 3 min, followed by a 5 sec pulse of 20 mM NaOH for regeneration of the chip surface. For pTau, a series of pTau-derived phosphorylated and non-phosphorylated peptides were flowed, as in Shih et al.³. All sensorgrams were analyzed using the Biacore T-200 evaluation software.

hFceR1 = target: T2, hFceR1 (human, UniProt P12319 26-205)
T2 construct: Non-target panel protein
T2 sequence (alpha): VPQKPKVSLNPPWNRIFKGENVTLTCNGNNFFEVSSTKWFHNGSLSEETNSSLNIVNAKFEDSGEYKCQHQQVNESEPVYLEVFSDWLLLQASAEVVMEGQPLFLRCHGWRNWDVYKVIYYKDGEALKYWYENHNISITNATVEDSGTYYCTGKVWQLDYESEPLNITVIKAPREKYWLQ
Experimental: as §1

mICAM1 = target: T3, mICAM1 (mouse, UniProt P13597 28-485, limits assumed)
T3 construct: Non-target panel protein
Experimental: as §1

mICAM2 = target: T4, mICAM2 (mouse, UniProt P35330 23-222, limits assumed)
T4 construct: Non-target panel protein
T4 sequence (looked up): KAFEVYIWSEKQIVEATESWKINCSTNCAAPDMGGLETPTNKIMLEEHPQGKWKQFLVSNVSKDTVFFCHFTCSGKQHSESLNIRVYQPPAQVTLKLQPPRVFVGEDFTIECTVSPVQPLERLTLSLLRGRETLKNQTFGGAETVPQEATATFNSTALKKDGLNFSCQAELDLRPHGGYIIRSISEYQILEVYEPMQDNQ
Experimental: as §1

hLOX-1 = hLOX-1 (human, UniProt P78380 61-273)
Experimental: as §1

hCXCL13 = target: T5, hCXCL13 (human, UniProt O43927 23-109)
T5 construct: Non-target panel protein
T5 sequence (looked up): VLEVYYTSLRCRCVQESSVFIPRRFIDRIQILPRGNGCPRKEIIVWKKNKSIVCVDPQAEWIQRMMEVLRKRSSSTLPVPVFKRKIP
Experimental: as §1

BSA = target: T6, BSA (UniProt P02769 25-607)
T6 construct: Non-target panel protein (albumins)
Experimental: as §1

T1 sequence (P15209 32-429 limits assumed): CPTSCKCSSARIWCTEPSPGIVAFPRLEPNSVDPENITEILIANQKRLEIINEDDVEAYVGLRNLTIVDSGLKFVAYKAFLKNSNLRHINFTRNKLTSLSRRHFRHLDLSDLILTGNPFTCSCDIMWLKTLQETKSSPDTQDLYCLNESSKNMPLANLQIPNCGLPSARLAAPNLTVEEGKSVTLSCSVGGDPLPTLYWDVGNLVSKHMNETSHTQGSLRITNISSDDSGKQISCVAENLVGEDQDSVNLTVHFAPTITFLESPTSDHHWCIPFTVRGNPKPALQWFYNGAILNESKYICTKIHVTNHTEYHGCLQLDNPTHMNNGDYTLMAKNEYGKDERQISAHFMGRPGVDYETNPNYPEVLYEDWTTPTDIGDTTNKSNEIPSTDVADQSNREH
T6 sequence (P02769 25-607 limits assumed): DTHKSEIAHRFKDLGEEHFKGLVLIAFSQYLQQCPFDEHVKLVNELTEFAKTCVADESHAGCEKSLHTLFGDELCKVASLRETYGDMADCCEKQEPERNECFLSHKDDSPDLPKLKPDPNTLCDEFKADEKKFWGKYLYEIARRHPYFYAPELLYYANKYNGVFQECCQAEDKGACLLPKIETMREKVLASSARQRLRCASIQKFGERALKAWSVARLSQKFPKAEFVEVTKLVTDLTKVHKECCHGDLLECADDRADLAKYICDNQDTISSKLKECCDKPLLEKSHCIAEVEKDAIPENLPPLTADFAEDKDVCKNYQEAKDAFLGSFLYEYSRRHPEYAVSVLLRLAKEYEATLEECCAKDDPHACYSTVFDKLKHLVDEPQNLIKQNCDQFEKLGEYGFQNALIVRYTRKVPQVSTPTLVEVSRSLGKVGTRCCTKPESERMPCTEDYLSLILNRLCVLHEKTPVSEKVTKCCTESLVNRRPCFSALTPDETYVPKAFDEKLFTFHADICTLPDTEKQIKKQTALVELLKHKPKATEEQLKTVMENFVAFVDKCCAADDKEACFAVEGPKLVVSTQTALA
T3 sequence (P13597 28-485 limits assumed): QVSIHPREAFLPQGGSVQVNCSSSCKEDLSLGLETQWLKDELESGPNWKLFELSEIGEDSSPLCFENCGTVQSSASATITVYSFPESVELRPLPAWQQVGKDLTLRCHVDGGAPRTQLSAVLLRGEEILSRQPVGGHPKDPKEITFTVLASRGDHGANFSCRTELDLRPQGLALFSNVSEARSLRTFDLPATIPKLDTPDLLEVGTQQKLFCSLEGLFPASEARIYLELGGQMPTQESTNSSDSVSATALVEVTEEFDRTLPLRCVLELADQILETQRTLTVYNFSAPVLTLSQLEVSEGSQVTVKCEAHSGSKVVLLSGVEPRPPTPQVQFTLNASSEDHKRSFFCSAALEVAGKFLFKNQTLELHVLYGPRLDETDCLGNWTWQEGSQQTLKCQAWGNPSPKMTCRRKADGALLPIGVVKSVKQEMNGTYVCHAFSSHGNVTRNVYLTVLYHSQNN

binding result (mTRKB): no binding (tested: 500 nM)
binding result (hFceR1): no binding (tested: 500 nM)
binding result (mICAM1): no binding (tested: 500 nM)
binding result (mICAM2): no binding (tested: 500 nM)
binding result (hLOX-1): no binding (tested: 500 nM)
binding result (hCXCL13): no binding (tested: 500 nM)
binding result (BSA): no binding (tested: 500 nM)
B1: C7-ABS-RAGE IgG (human IgG1) (antibody, V domains shown)
VH: EVQLVESGGGLVQPGGSLRLSCAASGFTFSSYWMSWVRQAPGKGLEWVASIDQDGSNKYYPDSVKGRFTISRDNAKNSLYLQMNSLRAEDTAVYYCARGGDITTGLDYWGQGTLVTVSS
VL: DIQMTQSPSSLSASVGDRVTITCRASQSIGSYLNWYQQKPGKAPKLLIYRASSLASGVPSRFSGSGSGTDFTLTISSLQPEDFATYYCLEFDEHPLTFGGGTKVEIK
notes: Human IgG1 format

— US20170073395A1 (Pfizer, published 2017)
